Molecular target: GerD–mScarlet-I (Bacillus cereus ATCC 14579)
Test: FRET or BRET; sensitized emission (filter) FRET by wide-field fluorescence microscopy in single dormant B. cereus spores; donor SGFP2, acceptor mScarlet-I; normalized FRET (NFRET) corrected for bleed-through and cross-excitation

Substance | FRET efficiency [%]
GerR(A-C-B)–SGFP2 (complex) | 6
GerRB–SGFP2 (natural protein) | 6
